This passage reports inhibition of BMP-2 induction of hepcidin promoter activity (luciferase) by 20% pooled serum from DRAGON.Fc treated mice; serum from mock treated control mice inhibited by about 30% results from US20140199314A1.

The experiment deals with BMP-2 (UniProt P12643). The experiment in a line: cell-based or functional assay.
Sequence of UniProt P12643 (P12643 283-396 limits assumed): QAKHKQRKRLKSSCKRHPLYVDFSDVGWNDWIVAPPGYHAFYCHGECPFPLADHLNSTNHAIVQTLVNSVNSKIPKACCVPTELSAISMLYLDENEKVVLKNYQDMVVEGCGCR

Consider “DRAGON.Fc (soluble DRAGON fused to the Fc portion of human immunoglobulin) (from UniProt Q6NW40 46-409) (Fc fusion)”, for which the inhibition of BMP-2 induction of hepcidin promoter activity (luciferase) by 20% pooled serum from DRAGON.Fc treated mice; serum from mock treated control mice inhibited by about 30% was > 70%.
